Assay [1] concerns the target Zika virus (ZIKV) virions, envelope protein E (Zika virus).
In assay [2] the target is DENV.
Assay [3] concerns the target MR766.
Assay [4] has as its target Dakar (Zika virus).
Assay [5] deals with Dengue virus serotype 4 (DENV4) virions, envelope protein E (Dengue virus 4).
The target of assay [6] is H/PF/2013 (Zika virus).
Assay [7] concerns the target Dengue virus serotype 4 (DENV4) virions, envelope protein E (Dengue virus 4). The source holds these as a separate data set.
Assay [8] addresses Zika virus (ZIKV) virions, envelope protein E (Zika virus). This is another data set of the same source.

Like-named read-outs stand apart in the source and are kept apart here.

Substance 1M7 (antibody) yielded an IC50 (read off the curve) in assay [1] of 0.09 µg/mL.
For 2D22 (antibody), the EC50 (read off the curve) in assay [2] came out at 0.08 µg/mL.
With EDE1 mAb C8 (antibody), the IC50 (read off the curve) in assay [1] is 0.2 µg/mL.
For EDE1 mAb C10 (antibody), the values for the EC50 (read off the curve) in assay [2] and in assay [7] were 0.08 µg/mL and 0.2 µg/mL, respectively. Moreover, the FRNT50 (focus reduction neutralization on Vero cells) in assay [3] is 0.2 ng/mL; in assay [4], 28.5 ng/mL; in assay [5], 88.9 ng/mL; in assay [6] it was 16.2 ng/mL.
ZKA78 (antibody) came in with an IC50 (read off the curve) in assay [1] of 0.2 µg/mL.
Regarding “ZKA190, human ZIKV-specific mAb (antibody)”, the IC50 (read off the curve) in assay [8] stood at 0.07 µg/mL.
